From US20040049024A1, “Compositions and methods related to the minn1 tumor suppressor gene and protein” (priority 2003, published 2004) come the findings set out here.

For one test, the system named is 293-T cells. Nature of the test: Cell death after Minn1 or Fas transfection, with or without caspase inhibitor. The test is classed as cell-based, human. The conditions noted are these: 30 μM, added immediately after transfection; DMSO carrier. How it is done:
Fas is a well-characterized inducer of apoptosis (Nagata, Annu. Rev. Genet., 33:29-55 [1999]).
Apoptosis requires the activation of caspase proteases (Stennicke and Salvesen, Biochim. Biophys. Acta 1477:299-306 [2000]). In order to confirm that the cell death observed in the Minn1 and […] transfected cells was apoptotic cell death, the transfection experiments were repeated in the presence of the caspase inhibitor, z-VAD-fink (Calbiochem). The drug was added to the cells to a final concentration of 30 μM immediately after transfection and was maintained during subsequent medium changes. DMSO was used as the drug carrier, and was also included in transfections that contained no drug in order to normalize transfection conditions.

The target of test [1] is T1, HA-H-Ras(WT) fusion protein (UniProt P01112 1-186).
T1 construct: Expressed in 293-T cells; precipitated with anti-HA beads; also called wild-type HA-H-Ras
Nature of the test: co-transfection in 293-T cells, anti-HA immunoprecipitation, anti-FLAG Western blot. How it is done: (§1) After 48 hours, the cells were lysed, immunoprecipitated using anti-HA antibody-conjugated sepharose beads (BAbCO), washed and analyzed by Western immunoblotting using an anti-FLAG monoclonal antibody (M2 antibody, SIGMA) and an alkaline phosphatase conjugated secondary antibody with an ECL detection kit (Amersham).
(§2) After 48 hours, the cells were lysed in EDTA-free RIPA buffer (described in Clark et al., J. Biol. Chem., 272:20990-20993 [1997]), immunoprecipitated with anti-HA antibody-conjugated sepharose beads (BAbCO), washed and subjected to Western immunoblotting using an anti-FLAG monoclonal primary antibody (M2 antibody, Sigma) and an alkaline phosphatase conjugated secondary antibody with an ECL chemiluminescence kit (Amersham).

Test [2] addresses T2, HA-H-Ras(G12V) fusion protein (UniProt P01112 1-186).
T2 construct: Expressed in 293-T cells; precipitated with anti-HA beads; also called pCGNHA-H-Ras(G12V)
The test is described as above. How it is done:
as §1, §2

Test [3] deals with H-Ras. Nature of the test: In vivo Ras/Minn1 binding assay (co-transfection/co-precipitation in 293-T cells). The class given is cell-based, human. The conditions noted are these: HA-H-Ras(WT) versus HA-H-Ras(G12V), 48 hours after co-transfection. From the text: To confirm and complement the results observed in the in vitro binding assay, an in vivo binding assay was undertaken using recombinant FLAG-tagged Minn1 protein and hemagglutinin (HA)-tagged Ras proteins. These experiments used a standard co-transfection/co-precipitation protocol common in the art, using 293-T cells, a transformed human embryonal kidney cell line.
Expression vectors encoding two different forms of HA-tagged Ras protein were used in this assay, namely, a wild-type HA-H-Ras fusion protein and an HA-H-Ras containing a gain-of-function (G12V) mutation. This mutation is known to be oncogenic, and results in elevated Ras signalling activity (Clark and Der, in GTPases in Biology [eds. Dickey and Birmbauer], Springer-Verlag London Ltd., pp. 259-287 [1993]). […] Thus, this mutant form of Ras is considered to be locked in an active conformation.
The in vivo binding assay was conducted by co-transfecting mammalian expression vectors encoding HA-H-Ras(WT) or HA-H-Ras(G12V) with an expression vector encoding FLAG-Minn1 into 293-T cells. After 48 hours, the cells were lysed, immunoprecipitated using anti-HA antibody-conjugated sepharose beads (BAbCO), washed and analyzed by Western immunoblotting using an anti-FLAG monoclonal antibody (M2 antibody, SIGMA) and an alkaline phosphatase conjugated secondary antibody with an ECL detection kit (Amersham). […]

The target in test [4] is T3, H-Ras (Homo sapiens, UniProt P01112).
T3 construct: made in house; XL1-Blue Escherichia coli for the MBP fusions
Nature of the test: In vitro Ras/Minn1 binding and co-precipitation assay.
Description: The ability of Ras and Minn1 to interact in vitro was examined. These experiments used in vitro produced and purified maltose binding protein (MBP) fusion proteins containing the Minn1 Ras-Association (RA) domain or the Raf Ras-Binding-Domain (RBD), and purified Ras protein in a standard protein binding and co-precipitation assay.
Ras protein was produced by inducing an H-Ras bacterial expression construct in bacteria followed by differential denaturation and dialysis, as known in the art (See e.g., Campbell-Burk and Carpenter, Methods Enzymol., 255:3-13 [1995]). […] Purity and concentrations of the recombinant proteins were assessed by denaturing polyacrylamide gel electrophoresis (SDS-PAGE) followed by Coomassie Blue staining and comparison to known standards.
After this time, the binding reactions were centrifuged and washed. Following the washing steps, the binding reactions were loaded and resolved using PAGE, blotted to a polyvinylidene difluoride (PVDF) membrane, and analyzed by Western immunoblotting using an anti-H-Ras monoclonal primary antibody (Quality Biotech, #146). Detection was accomplished using an alkaline phosphatase conjugated secondary antibody and ECL chemiluminescence reagent (Amersham). […]
The proteins resolved in the PAGE were analyzed by Western immunoblotting using an anti-H-Ras monoclonal antibody (Viro Med). […]

Peptide text beside a SMILES is read from it. * marks the point of attachment. Cbz = O=C(OCc1ccccc1)*; CH2F = FC*

In the case of `COC(=O)C[C@H](NC(=O)[C@H](C)NC(=O)[C@@H](NC(=O)OCc1ccccc1)C(C)C)C(=O)CF` [z-VAD-fmk] (Cbz-Val-Ala-Asp(OMe)-CH2F), in the test on 293-T cells, the “Effect on Fas-induced cell death” value is reported as “severely reduced” and the “Effect on Minn1-induced cell death” value is “severely reduced”.

B1: FLAG-tagged Minn1 protein (other, not shown: small tags and cut ends)
chain: MGEAEAPSFEMTWSSTTSSGYCSQEDSDSELEQYFTARTSLARRPRRDQDEPVEWETPDLFQAEIEQKIKEYNAQINSNLFMSLNKDGSYTGFIKVQLKLVRPVSVPSSKKPPSLQDARRGPGRGTSVRRRTSFYLPKDAVKHLHVLSRTRAREVIEALLRKFLVVDDPRKFALFERAERHGQVYLRKLLDDEQPLRLRLLAGPSDKALSFVLKENDSGEVNWDAFSMPELHNFLRILQREEEEHLRQILQKYSYCRQKIQEALHACPLG
notes: also called FLAG-Minn1
For B1, the binding result in test [1] and in test [2] was “binds” in each case.

B2: FLAG-tagged Minn1: Minn1 protein with amino terminal FLAG epitope tag, expressed from pCDNAFLAG-Minn1 in 293-T cells (protein)
chain: B1 chain
modifications: left off: small tags and cut ends
Turning to B2, the “Association with HA-tagged Ras proteins (anti-HA immunoprecipitation, anti-FLAG Western)” value in the test on H-Ras [3] is recorded as “preferentially associated with the activated HA-Ras(G12V) protein”.

B3: MBP-Minn1: maltose binding protein fusion protein containing the Minn1 Ras-Association (RA) domain, amino acid positions 59-270 (protein)
chain: DLFQAEIEQKIKEYNAQINSNLFMSLNKDGSYTGFIKVQLKLVRPVSVPSSKKPPSLQDARRGPGRGTSVRRRTSFYLPKDAVKHLHVLSRTRAREVIEALLRKFLVVDDPRKFALFERAERHGQVYLRKLLDDEQPLRLRLLAGPSDKALSFVLKENDSGEVNWDAFSMPELHNFLRILQREEEEHLRQILQKYSYCRQKIQEALHACPLG
modifications: left off: large carriers
For the molecule B3, the “GTP dependence of the interaction with Ras” value with H-Ras [4] (GTP-loaded versus GDP-loaded H-Ras) was “GTP-dependent”. Besides, the “Co-precipitation of Ras protein (physical interaction with Ras)” value with H-Ras [4] (purified H-Ras preloaded with GTP or GDP, 4° C. for 2 hours, Western immunoblot with anti-H-Ras antibody) is “co-precipitated”.
